# Test results published in the supplement of paper PMC5998384.
# Experiments:
# HeLa Kyoto [1] = test: solubility change mitosis vs G1/S (difference of NP-40 vs SDS log2 ratios) (log2 ratio difference); higher = more soluble in mitosis
# HeLa Kyoto [2] = test: solubility in G1/S (NP-40 vs SDS abundance) (log2 ratio); higher = more soluble; details: cell cycle stage: G1/S
# HeLa Kyoto [3] = test: melting temperature (median over replicates), in situ; higher = more thermally stable
# 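Wherever melting temperature (median over replicates), in situ is given: HeLa Kyoto cells synchronized by double thymidine or nocodazole block, proteins quantified by TMT10plex mass spectrometry, three independent biological replicates.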
# 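Wherever solubility change mitosis vs G1/S (difference of NP-40 vs SDS log2 ratios) is given: synchronized HeLa Kyoto cells (double thymidine block for G1/S, nocodazole release for mitosis), protein amounts in NP-40 versus SDS lysates quantified by mass spectrometry, three biological replicates.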
# 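Wherever solubility in G1/S (NP-40 vs SDS abundance) is given: HeLa Kyoto cells arrested at G1/S by double thymidine block, proteins quantified by TMT10plex mass spectrometry in mild NP-40 versus SDS extracts, three biological replicates.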
substance,measurement,setting,value
MQNEPLTPGYHGFPARDSQGNQEPTTTPDAMVQPFTTIPFPPPPQNGIPTEYGVPHTQDYAGQTGEHNLTLYGSTQAHGEQSSNSPSTQNGSLTTEGGAQTDGQQSQTQSSENSESKSTPKRLHVSNIPFRFRDPDLRQMFGQFGKILDVEIIFNERGSKGFGFVTFENSADADRAREKLHGTVVEGRKIEVNNATARVMTNKKMVTPYANGWKLSPVVGAVYGPELYAASSFQADVSLGNDAAVPLSGRGGINTYIPLISLPLVPGFPYPTAATTAAAFRGAHLRGRGRTVYGAVRAVPPTAIPAYPGVVYQDGFYGADLYGGYAAYRYAQPATATAATAAAAAAAAYSDGYGRVYTADPYHALAPAASYGVGAVASLYRGGYSRFAPY [RBFOX2],solubility change mitosis (log2),HeLa Kyoto [1],0.0624
same,solubility in G1/S (log2),HeLa Kyoto [2],0.223
same,melting temperature,HeLa Kyoto [3]; cell cycle stage: G1/S,49.8 °C
MTDRYTIHSQLEHLQSKYIGTGHADTTKWEWLVNQHRDSYCSYMGHFDLLNYFAIAENESKARVRFNLMEKMLQPCGPPADKPEEN [SF3B5],solubility change mitosis (log2),HeLa Kyoto [1],0.221
same,solubility in G1/S (log2),HeLa Kyoto [2],-0.73
same,melting temperature,HeLa Kyoto [3]; cell cycle stage: G1/S,52.7 °C
same,melting temperature,HeLa Kyoto [3]; cell cycle stage: mitosis,51.1 °C
MTGGRFDFDDGGTYCGGWEEGKAHGHGICTGPKGQGEYSGSWSHGFEVVGGYTWPSGNTYQGYWAQGKRHGLGVETKGKWMYRGEWSHGFKGRYGVRQSLCTPARYEGTWSNGLQDGYGVETYGDGGTYQGQWAGGMRHGYGVRQSVPYGMATVIRSPLRTSLASLRSEQSNGSVLHDAAAAADSPAGTRGGFVLNFHADAELAGKKKGGLFRRGSLLGSMKLRKSESKSSISSKRSSVRSDAAMSRISSSDANSTISFGDVDCDFCPVEDHVDATTTETYMGEWKNDKRNGFGVSERSNGMKYEGEWANNKRHGYGCTVFPDGSKEEGKYKNNILVRGIRKQLIPIRHTKTREKVDRAIEGAQRAAAMARTKVEIANSRTAHARAKADAADQAALAARQECDIARAVARELSPDFYQPGPDYVKQRFQEGVDAKENPEEKVPEKPPTPKESPHFYRKGTTPPRSPEASPKHSHSPASSPKPLKKQNPSSGARLNQDKRSVADEQVTAIVNKPLMSKAPTKEAGAVVPQSKYSGRHHIPNPSNGELHSQYHGYYVKLNAPQHPPVDVEDGDGSSQSSSALVHKPSANKWSPSKSVTKPVAKESKAEPKAKKSELAIPKNPASNDSCPALEKEANSGPNSIMIVLVMLLNIGLAILFVHFLT [JPH1],solubility change mitosis (log2),HeLa Kyoto [1],0.108
same,solubility in G1/S (log2),HeLa Kyoto [2],-0.419
same,melting temperature,HeLa Kyoto [3]; cell cycle stage: mitosis,51.7 °C
MKDRLEQLKAKQLTQDDDTDAVEIAIDNTAFMDEFFSEIEETRLNIDKISEHVEEAKKLYSIILSAPIPEPKTKDDLEQLTTEIKKRANNVRNKLKSMEKHIEEDEVRSSADLRIRKSQHSVLSRKFVEVMTKYNEAQVDFRERSKGRIQRQLEITGKKTTDEELEEMLESGNPAIFTSGIIDSQISKQALSEIEGRHKDIVRLESSIKELHDMFMDIAMLVENQGEMLDNIELNVMHTVDHVEKARDETKKAVKYQSQARKKLIIIIVLVVVLLGILALIIGLSVGLN [STX3],solubility change mitosis (log2),HeLa Kyoto [1],0.0981
same,solubility in G1/S (log2),HeLa Kyoto [2],0.157
same,melting temperature,HeLa Kyoto [3]; cell cycle stage: G1/S,53.9 °C
ZFHX3,solubility change mitosis (log2),HeLa Kyoto [1],0.302
same,solubility in G1/S (log2),HeLa Kyoto [2],-0.242
same,melting temperature,HeLa Kyoto [3]; cell cycle stage: G1/S,48.7 °C
same,melting temperature,HeLa Kyoto [3]; cell cycle stage: mitosis,49.3 °C
MWVCSTLWRVRTPARQWRGLLPASGCHGPAASSYSASAEPARVRALVYGHHGDPAKVVELKNLELAAVRGSDVRVKMLAAPINPSDINMIQGNYGFLPELPAVGGNEGVAQVVAVGSNVTGLKPGDWVIPANAGLGTWRTEAVFSEEALIQVPSDIPLQSAATLGVNPCTAYRMLMDFEQLQPGDSVIQNASNSGVGQAVIQIAAALGLRTINVVRDRPDIQKLSDRLKSLGAEHVITEEELRRPEMKNFFKDMPQPRLALNCVGGKSSTELLRQLARGGTMVTYGGMAKQPVVASVSLLIFKDLKLRGFWLSQWKKDHSPDQFKELILTLCDLIRRGQLTAPACSQVPLQDYQSALEASMKPFISSKQILTM [MECR],solubility change mitosis (log2),HeLa Kyoto [1],-0.0123
same,solubility in G1/S (log2),HeLa Kyoto [2],0.282
same,melting temperature,HeLa Kyoto [3]; cell cycle stage: G1/S,55 °C
same,melting temperature,HeLa Kyoto [3]; cell cycle stage: mitosis,54.1 °C
MLQGHSSVFQALLGTFFTWGMTAAGAALVFVFSSGQRRILDGSLGFAAGVMLAASYWSLLAPAVEMATSSGGFGAFAFFPVAVGFTLGAAFVYLADLLMPHLGAAEDPQTTLALNFGSTLMKKKSDPEGPALLFPESELSIRIGRAGLLSDKSENGEAYQRKKAAATGLPEGPAVPVPSRGNLAQPGGSSWRRIALLILAITIHNVPEGLAVGVGFGAIEKTASATFESARNLAIGIGIQNFPEGLAVSLPLRGAGFSTWRAFWYGQLSGMVEPLAGVFGAFAVVLAEPILPYALAFAAGAMVYVVMDDIIPEAQISGNGKLASWASILGFVVMMSLDVGLG [SLC39A11],solubility change mitosis (log2),HeLa Kyoto [1],-0.134
same,solubility in G1/S (log2),HeLa Kyoto [2],0.00506
same,melting temperature,HeLa Kyoto [3]; cell cycle stage: G1/S,56 °C
same,melting temperature,HeLa Kyoto [3]; cell cycle stage: mitosis,51.9 °C
MAAQPPRGIRLSALCPKFLHTNSTSHTWPFSAVAELIDNAYDPDVNAKQIWIDKTVINDHICLTFTDNGNGMTSDKLHKMLSFGFSDKVTMNGHVPVGLYGNGFKSGSMRLGKDAIVFTKNGESMSVGLLSQTYLEVIKAEHVVVPIVAFNKHRQMINLAESKASLAAILEHSLFSTEQKLLAELDAIIGKKGTRIIIWNLRSYKNATEFDFEKDKYDIRIPEDLDEITGKKGYKKQERMDQIAPESDYSLRAYCSILYLKPRMQIILRGQKVKTQLVSKSLAYIERDVYRPKFLSKTVRITFGFNCRNKDHYGIMMYHRNRLIKAYEKVGCQLRANNMGVGVVGIIECNFLKPTHNKQDFDYTNEYRLTITALGEKLNDYWNEMKVKKNTEYPLNLPVEDIQKRPDQTWVQCDACLKWRKLPDGMDQLPEKWYCSNNPDPQFRNCEVPEEPEDEDLVHPTYEKTYKKTNKEKFRIRQPEMIPRINAELLFRPTALSTPSFSSPKESVPRRHLSEGTNSYATRLLNNHQVPPQSEPESNSLKRRLSTRSSILNAKNRRLSSQFENSVYKGDDDDEDVIILEENSTPKPAVDHDIDMKSEQSHVEQGGVQVEFVGDSEPCGQTGSTSTSSSRCDQGNTAATQTEVPSLVVKKEETVEDEIDVRNDAVILPSCVEAEAKIHETQETTDKSADDAGCQLQELRNQLLLVTEEKENYKRQCHMFTDQIKVLQQRILEMNDKYVKKETCHQSTETDAVFLLESINGKSESPDHMVSQYQQALEEIERLKKQCSALQHVKAECSQCSNNESKSEMDEMAVQLDDVFRQLDKCSIERDQYKSEVELLEMEKSQIRSQCEELKTEVEQLKSTNQQTATDVSTSSNIEESVNHMDGESLKLRSLRVNVGQLLAMIVPDLDLQQVNYDVDVVDEILGQVVEQMSEISST [MORC3],solubility change mitosis (log2),HeLa Kyoto [1],-0.206
same,solubility in G1/S (log2),HeLa Kyoto [2],-0.0527
same,melting temperature,HeLa Kyoto [3]; cell cycle stage: G1/S,48.7 °C
same,melting temperature,HeLa Kyoto [3]; cell cycle stage: mitosis,49.6 °C
MAEYLASIFGTEKDKVNCSFYFKIGACRHGDRCSRLHNKPTFSQTIALLNIYRNPQNSSQSADGLRCAVSDVEMQEHYDEFFEEVFTEMEEKYGEVEEMNVCDNLGDHLVGNVYVKFRREEDAEKAVIDLNNRWFNGQPIHAELSPVTDFREACCRQYEMGECTRGGFCNFMHLKPISRELRRELYGRRRKKHRSRSRSRERRSRSRDRGRGGGGGGGGGGGGRERDRRRSRDRERSGRF [U2AF1],solubility change mitosis (log2),HeLa Kyoto [1],0.342
same,solubility in G1/S (log2),HeLa Kyoto [2],-0.457
same,melting temperature,HeLa Kyoto [3]; cell cycle stage: G1/S,46.8 °C
same,melting temperature,HeLa Kyoto [3]; cell cycle stage: mitosis,48.2 °C
MADYWKSQPKKFCDYCKCWIADNRPSVEFHERGKNHKENVAKRISEIKQKSLDKAKEEEKASKEFAAMEAAALKAYQEDLKRLGLESEILEPSITPVTSTIPPTSTSNQQKEKKEKKKRKKDPSKGRWVEGITSEGYHYYYDLISGASQWEKPEGFQGDLKKTAVKTVWVEGLSEDGFTYYYNTETGESRWEKPDDFIPHTSDLPSSKVNENSLGTLDESKSSDSHSDSDGEQEAEEGGVSTETEKPKIKFKEKNKNSDGGSDPETQKEKSIQKQNSLGSNEEKSKTLKKSNPYGEWQEIKQEVESHEEVDLELPSTENEYVSTSEADGGGEPKVVFKEKTVTSLGVMADGVAPVFKKRRTENGKSRNLRQRGDDQ [WBP4],solubility change mitosis (log2),HeLa Kyoto [1],0.763
same,solubility in G1/S (log2),HeLa Kyoto [2],-0.703
same,melting temperature,HeLa Kyoto [3]; cell cycle stage: mitosis,54.7 °C
